One block for each molecule: values may come before it.
How the values were obtained:
[1] = molecular target: acto-Myo1c^1IQ (pyr.actin-Myo1c^1IQ) (Rattus norvegicus, UniProt Q63355); assay type: binding
[2] = molecular target: rabbit skeletal muscle F-actin (rabbit) (UniProt P68135)
[3] = molecular target: rabbit skeletal muscle F-actin (rabbit) (UniProt P68135); remark: listed apart in the source

Kd [1]: 1.74 µM
Molecule: Nc1ncnc2c1ncn2[C@@H]1O[C@H](COP(=O)(O)OP(=O)(O)O)[C@@H](O)[C@H]1O [ADP]

Km for actin of the steady-state actin-activated Mg2+-ATPase, pCa 4.6 [2]: 0.28 μM
Molecule: Myo1c^1IQ-G (from UniProt Q63355 1-725) (domain or fragment)

in vitro motility: speed of actin filaments over surface-held myosin [3]: 29 nm/s
Molecule: Myo1c^SAH-G (from UniProt Q63355 1-762; D3ZJP6 805-843) (domain or fragment)

Reference: PMC2826812 (Biochemistry, 2010)
